From patent US7176184B2, “Treatment for inflammatory bowel disease with a fibronectin polypeptide” (Biogen Idec MA Inc., priority 1992, dated 2007)
Several values for one entry are separate records, joined by “and”; a condition that tells them apart may be missing. Equal entries are not always repeated. Entries after “also recorded” stand apart in the source; their conditions may differ.

How the values were obtained:
[1] = system: NOD mice receiving spleen cells from diabetic donors; experiment: Adoptive transfer of diabetes in NOD mice; assay type: in vivo
Source text: For the adoptive transfer of diabetes experiments, NOD mice were obtained from Taconic Farms (Germantown, N.Y.) or from the Joslin Diabetes Center (Boston, Mass.). Spontaneously diabetic (D) females of recent onset (13–20 weeks of age) were used as spleen cell donors and 8 week old nondiabetic (Y) females served as recipients. Spleen cells from 4 week old nondiabetic (Y) female donors which fail to transfer disease were used as a negative control.
Recipient mice were placed on acidified water (1:8400 dilution of concentrated HCl in water) one week prior to sublethal irradiation (775 rad) performed in split doses (300 rad, 300 rad, and 175 rad) on each of three days (day −2, −1, and the day of transfer), in order to minimize any incidence of intestinal infection subsequent to high dose irradiation (Gamma Cell 1000 Cesium ^137 source, Nordion International, Inc., Ontario, Canada). Spleens were harvested from diabetic donors or from nondiabetic controls, cell suspensions made and red cells lysed with Hemolytic Geys solution. […] Another group received PBS alone without cells transferred. The fusion protein LFA-3Ig (LFA-3TIP) was isolated and purified as described in PCT US92/02050 and Miller et al., 1993 [36]. […] Diabetes onset was monitored as described above.

[2] = system: dual responder allergic sheep; experiment: Sheep model of airways hyper-responsiveness (Ascaris suum antigen challenge); assay type: in vivo
Method: Experiments were performed essentially as described by Abraham et al.. […] To measure breathing mechanics and physical changes in the airways, the sheep were restrained in a prone position with heads immobilized. A balloon catheter was advanced through one nostril under topical anesthesia with 2% lidocaine solution to the lower esophagus, and a cuffed endotracheal tube was advanced through the other nostril (using a flexible fiberoptic bronchoscope as a guide) for the measurement of airway mechanics and during aerosol challenges. Pleural pressure was estimated with the esophageal balloon catheter (filled with 1 ml of air) positioned 5–10 cm from the gastroesophageal junction. In this position, end expiratory pleural pressure ranged between −2 and −5 cm H2O. Once the balloon was placed, it was secured so that it remained in position for the duration of the experiment. Lateral pressure in the trachea was measured with a sidehole catheter, (inner diam. 2.5 mm) advanced through and positioned distal to the tip of the endotracheal tube. Transpulmonary pressure (the difference between tracheal and pleural pressure) was measured with a differential pressure transducer catheter system (MP45, Validyne, Northridge, Calif.). […] Pulmonary resistance (RL) was measured by connecting the proximal end of the endotracheal tube to a Fleich pneumotachograph (Dyna Sciences, Blue Bell Pa.). Signals indicating flow and transpulmonary pressure were recorded on an oscilloscope recorder (Model DR-12; Electronics for Medicine, White Plains, N.Y.) linked to a computer for automatic calculation of pulmonary resistance (RL) from transpulmonary pressure, respiratory volume (obtained by digital integration) and flow by the mid-volume technique, analyzed from 5–10 breaths. Thoracic gas volume (Vtg) was measured immediately after determination of RL in a constant volume body plethysmograph. Specific lung resistance (SRL) was calculated from these values (SRL=Vtg×RL).
Airway responsiveness was determined by performing dose response curves to inhaled carbachol. The dose response curves were plotted using measurements of SRL taken immediately after inhalation of buffer (PBS) alone and after each consecutive administration of 10 breaths of increasing concentrations of carbachol in PBS. The concentrations of carbachol were 0.25%, 0.5%, 1.0%, 2.0% and 4.0% wt/vol in PBS. The provocation test was discontinued when SRL increased over 400% from the post-PBS value or after the highest carbachol concentration had been administered. Airway responsiveness was determined by calculating from the dose response curves the cumulative carbachol dose in breath units (BU) that increased specific lung resistance 400% over the post buffer value (PD400%). One breath unit was defined as one breath of a 1% wt/vol carbachol solution.
Each sheep was subjected to a trial as a control in which a placebo (PBS without additive) was used as a pretreatment 30 minutes before allergen challenge with Ascaris suum antigen (Greer Diagnostics, Lenoir, N.C.). The antigen solution was delivered as an aerosol using a disposable medical nebulizer (RAINDROP®, Puritan Bennett, Lenexa, Kans.) that provided an aerosol with a mass median aerodynamic diameter of 3.2 μM (geometric SD 1.9) as determined by an Andersen cascade impactor. The Ascaris suum extract was diluted in PBS to a concentration of 82,000 Protein Nitrogen Units(PNU)/ml. The output of the nebulizer was directed into a plastic T-tube, one end of which was connected to the inspiratory port of a Harvard respirator. A dosimeter connected to the nebulizer consisting of a solenoid valve and a 20 psi compressed air source and the solenoid valve was activated at the beginning of the inspiratory cycle of the Harvard respirator for one second. The aerosol delivered at a tidal volume of 500 ml and a rate of 20 breaths per min. for 20 min. Each sheep was challenged with an equivalent dose of antigen (400 breaths) in the control and VCAM1-IgG1 trials. […]

[3] = system: CTT VLA4 on CTT PBLs; experiment: FACS analysis of binding of anti-VLA-4 monoclonal antibodies to CTT peripheral blood mononuclear leukocytes; design: species or system cotton top tamarin
Method: Blood samples (3 ml) from CTTs were heparinized and the CTT peripheral blood mononuclear leukocytes (PBLs) were isolated using a Ficoll-Hypaque gradient (Pharmacia) according to the manufacturer's instructions for isolation of human PBLs. CTT PBLs were examined for their ability to bind to the murine anti-human VLA-4 monoclonal antibodies HP1/2 and HP2/1 by FACS analysis using a Becton Dickenson FACStar and standard techniques (see, e.g., Lobb et al., 1991a).

[4] = system: VCAM-1-expressing cells; experiment: Leukocyte adhesion to VCAM-1-expressing cells; assay type: cell-based
[5] = system: cotton top tamarins (CTTs) exhibiting symptoms of spontaneous colitis; experiment: Cotton top tamarin trials: acute inflammation index from colon biopsies; assay type: in vivo; design: Day 0 AII (acute inflammation index) / Day 10 AII (acute inflammation index): scale not given here; settings: for Day 0 AII (acute inflammation index) / Day 10 AII (acute inflammation index): individual treated CTTs
Method: Five CTTs received HP1/2 and five received placebo, by intravenous injection. The CTTs receiving HP1/2 were injected with 1 mg HP1/2 per day (i.e., about 2 mg/kg/day, based on approximate half-kilogram weight of a CTT) for eight days (on Days 0, 1, 2, 3, 4, 5, 6, and 7 of the trial). Colon tissue samples obtained from the animals were biopsied every other day (on Days 0, 2, 4, 6, 8, and 10 of the trial). Data from the biopsies were used to determine an acute inflammation index for each animal, giving a semi-quantitative analysis of the course of the colitis. (See, Madara et al..) The inflammation indices before the trial began (Day 0) and at the end of the trial at Day 10 are set forth in Table II, below: (“Treated CTTs” received antibody-HP1/2; “Control CTTs” received placebo) The trial described in Example III was repeated using 14 CTTs, 7 receiving HP1/2 and 7 receiving placebo.

[6] = molecular target: VLA-4 (Homo sapiens, UniProt P13612); experiment: VLA-4-mediated T cell activation; assay type: cell-based
[7] = 15 mg aerosol 2, 8 and 24 h after antigen challenge, listed as VCAM-Ig
[8] = 30 mg aerosol 2 and 24 h after antigen challenge (optimal dose), listed as VCAM-Ig
[9] = 30 mg aerosol 30 min before and 8 h after antigen challenge, listed as VCAM-Ig
[10] = 30 mg aerosol 30 min before antigen challenge
[11] = 60 mg aerosol 30 min before antigen challenge, listed as VCAM-Ig

Sequence of VLA-4 (P13612 34-1032): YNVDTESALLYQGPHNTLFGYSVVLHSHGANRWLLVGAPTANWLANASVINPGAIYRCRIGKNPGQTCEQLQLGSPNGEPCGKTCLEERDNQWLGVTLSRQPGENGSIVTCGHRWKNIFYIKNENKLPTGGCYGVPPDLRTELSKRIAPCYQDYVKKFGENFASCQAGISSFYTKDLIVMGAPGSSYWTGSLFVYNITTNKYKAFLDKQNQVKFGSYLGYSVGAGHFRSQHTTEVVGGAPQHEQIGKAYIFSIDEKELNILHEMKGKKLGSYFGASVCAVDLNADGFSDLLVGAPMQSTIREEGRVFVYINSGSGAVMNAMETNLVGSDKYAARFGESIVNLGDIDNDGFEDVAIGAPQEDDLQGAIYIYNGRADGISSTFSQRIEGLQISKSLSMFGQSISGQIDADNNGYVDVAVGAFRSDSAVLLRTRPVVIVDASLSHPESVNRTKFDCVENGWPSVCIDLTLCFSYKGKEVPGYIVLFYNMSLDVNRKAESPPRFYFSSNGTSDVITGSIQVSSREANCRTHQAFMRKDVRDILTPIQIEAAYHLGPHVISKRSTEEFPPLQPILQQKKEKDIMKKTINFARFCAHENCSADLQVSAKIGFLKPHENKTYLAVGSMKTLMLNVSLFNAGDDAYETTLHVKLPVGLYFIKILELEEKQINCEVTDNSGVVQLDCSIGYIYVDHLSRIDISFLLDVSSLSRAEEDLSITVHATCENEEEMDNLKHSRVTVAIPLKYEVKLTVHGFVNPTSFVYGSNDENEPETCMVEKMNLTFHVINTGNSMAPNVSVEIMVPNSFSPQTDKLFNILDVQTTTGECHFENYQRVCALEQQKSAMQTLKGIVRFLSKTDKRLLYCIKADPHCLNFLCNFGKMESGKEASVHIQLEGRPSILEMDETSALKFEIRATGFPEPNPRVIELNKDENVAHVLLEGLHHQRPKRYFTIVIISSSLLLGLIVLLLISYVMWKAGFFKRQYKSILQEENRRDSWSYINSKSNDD
Sequence of VLA-4 (P05556 21-798 partner): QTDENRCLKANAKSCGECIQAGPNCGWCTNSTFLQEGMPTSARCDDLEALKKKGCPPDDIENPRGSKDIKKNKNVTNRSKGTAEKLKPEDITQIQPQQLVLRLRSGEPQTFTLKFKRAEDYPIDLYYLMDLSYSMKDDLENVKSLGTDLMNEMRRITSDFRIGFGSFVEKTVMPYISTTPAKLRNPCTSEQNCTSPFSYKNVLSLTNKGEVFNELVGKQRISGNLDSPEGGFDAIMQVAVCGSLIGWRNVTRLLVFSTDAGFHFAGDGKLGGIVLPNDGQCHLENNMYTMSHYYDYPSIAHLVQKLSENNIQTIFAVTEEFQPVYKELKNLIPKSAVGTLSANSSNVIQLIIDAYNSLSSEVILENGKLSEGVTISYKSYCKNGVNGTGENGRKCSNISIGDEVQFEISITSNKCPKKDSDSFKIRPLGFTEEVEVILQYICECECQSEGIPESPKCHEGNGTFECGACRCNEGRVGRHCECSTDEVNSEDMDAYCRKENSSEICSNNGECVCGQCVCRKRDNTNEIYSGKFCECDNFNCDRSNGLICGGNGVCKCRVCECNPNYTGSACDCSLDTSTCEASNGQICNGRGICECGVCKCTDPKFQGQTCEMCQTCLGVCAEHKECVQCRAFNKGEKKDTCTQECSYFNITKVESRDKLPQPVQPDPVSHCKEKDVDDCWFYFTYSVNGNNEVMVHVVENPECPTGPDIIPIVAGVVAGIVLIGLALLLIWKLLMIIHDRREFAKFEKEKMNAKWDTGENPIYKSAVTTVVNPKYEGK

VCAM 2D-IgG: soluble form of VCAM1: two N-terminal domains of VCAM1 fused to human IgG1 heavy chain constant region (hinge, CH2, CH3); SEQ ID NO: 5/12
onset of diabetes in recipients of cells from diabetic donor mice ([1]; 100 μg i.p. through day 17): significantly inhibits the onset of diabetes | serum level of fusion protein (ELISA) ([1]; 100 μg/0.2 ml i.p. twice weekly through day 17): sufficient to saturate VLA4-positive cells | incidence of diabetes ([1]; by day 30 post-transfer, recipients of cells from diabetic donors, 100 μg i.p. through day 17, n=5): 60% | airways hyper-responsiveness (AHR) [2, 7]: blockage of the AHR; also recorded: inhibition of AHR | late phase response (LPR) [2, 7]: partial blockage; also recorded: significant but partial inhibition | airways hyper-responsiveness (AHR) [2, 8]: complete blockage; also recorded: complete inhibition | late phase response (LPR) [2, 8]: complete blockage; also recorded: complete inhibition | airways hyper-responsiveness (AHR) [2, 9]: no blockage; also recorded: no inhibition | late phase response (LPR) [2, 9]: blocked completely; also recorded: complete inhibition | airways hyper-responsiveness (AHR) [2, 10]: no effect | late phase response (LPR) [2, 10]: significant but partial inhibition | airways hyper-responsiveness (AHR) [2, 11]: blocked; also recorded: inhibition of AHR | late phase response (LPR) [2, 11]: partial blockage; also recorded: significant but partial inhibition | late phase response (LPR) versus placebo control ([2]; all dosing regimens, ten animals): partial or complete inhibition

B1: HP1/2: murine anti-human VLA-4 monoclonal antibody (IgG1) obtained from Biogen, Inc.; VH/VK in SEQ ID NO: 1-4 (antibody, listed as Mus musculus, V domains shown)
VH: EVKLQQSGAELVKPGASVKLSCTASGFNIKDTYMHWVKQRPEQGLEWIGRIDPASGDTKYDPKFQVKATITADTSSNTAWLQLSSLTSEDTAVYYCADGMWVSTGYALDFWGQGTTVTVSS
VL: SIVMTQTPKFLLVSAGDRVTITCKASQSVTNDVAWYQQKPGQSPKLLIYYASNRYTGVPDRFTGSGYGTDFTFTISTVQAEDLAVYFCQQDYSSPYTFGGGTKLEI
binding to CTT PBLs [3]: bound | leukocyte adhesion to VCAM-1-expressing cells [4]: block | change in acute inflammation index ([5]; Example III, Day 0 to Day 10): significant (p<0.01) decrease | Day 0 AII (acute inflammation index) ([5]; Example III, before the trial began, 1 mg HP1/2 per day i.v. Days 0-7): 2 (3×) and 1 (2×) | Day 10 AII (acute inflammation index) ([5]; Example III, end of trial, 1 mg HP1/2 per day i.v. Days 0-7): 1 and 0 (4×) | Day 0 AII, MEAN ([5]; Example III, mean of 5 treated CTTs, before the trial began): 1.6 | Day 10 AII, MEAN ([5]; Example III, mean of 5 treated CTTs, end of trial): 0.2 | Day 0 AII (acute inflammation index) ([5]; Example IV (repeat trial), Day 0): 2 | Day 10 AII (acute inflammation index) ([5]; Example IV (repeat trial), Day 10): 0 (5×) and 1 and 2 | change in acute inflammation ([5]; Example IV, Day 0 to Day 10): significant decrease | Day 0 AII, MEAN ([5]; Example IV, mean of 7 treated CTTs, Day 0): 2.0 | Day 10 AII, MEAN ([5]; Example IV, mean of 7 treated CTTs, Day 10): 0.43 | inflammation of biopsied intestinal tissue ([5]; summary statement): significant reduction in inflammation | VLA-4-mediated T cell activation [6]: not to promote
